{"source": "paper doi:10.1101/2021.04.03.438258", "target": "SARS-CoV-2 HexaPro S (SARS-CoV-2)", "test": "cryo-EM structure", "data": [{"substance": "SARS-CoV-2 HexaPro S (domain or fragment)", "values": [{"measurement": "stoichiometry N", "value": 3}]}]}
